Experimental data reported in the DeepSol protein solubility set.

assay: soluble on expression in E. coli; label from the status in PepcDB or PDB records

| Sequence | soluble on expression in E. coli |
| --- | --- |
| MSLSVKIVIKPNTYFDSVSLMSISTRANKLDGVEQAFVAMATEMNKGVLKNLGLLTPELEQAKNGDLMIVINGKSGADNEQLLVEIEELFNTKAQSGSHEARYATIGSAKKHIPESNLAVISVNGLFAAREARQALQNDLNVMLFSDNVSVEDELALKQLAHEKGLLMMGPDCGTAIINGAALCFGNAVRRGNIGIVGASGTGSQELSVRIHEFGGGVSQLIGTGGRDLSEKIGGLMMLDAIGMLENDPQTEIIALISKPPAPAVARKVLERARACRKPVVVCFLDRGETPVDEQGLQFARGTKEAALKAVMLSGVKQENLDLHTLNQPLIADVRARLQPQQKYIRGLFCGGTLCDETMFAVMEKHGDVYSNIQPDPEFRLKDINRSIKHTFLDFGDDDFTNGKPHPMIDPTNRISRLIEEARDPEVAVIVMDFVLGFGSHEDPVGSTIETIKEAKAIAAAEGRELIILAYVLGTDLDTPSLEQQSQMLLDAGVILASSSTNTGLLAREFICKGEEGHHHHHH | soluble |
| MSIIIENSGLFSSFQDFGRKGYEHEGVIPSGALDELAHEIANRLVANDKNEATLEMTQKMATIRFTEPALIALTGGNFKAETEHMKIYPNKLYLINEGETLKFNETSRTSRVYLAVGGGFKLEKWLHSASTDFNVEIGGFEGRKLKKGDEIELKHHYSQRHLKLFENLSDKRTTDWGIDGYALSFNYVSDVFHVIKNKGTEDFKKEATRRFTTAEYSVSSKTNRVGMVLDGPQIKAYYDDMPAHQSVKRGTIQVKRDGTPIVLLNDHYTLGSYPQIGTIASYHLTKLAQKPQGSKLKFQFIDIETAEKNLIKYSNWLNQLFHGIEHRMQLEMLKMAGDPLEHHHHHH | not soluble |
| MLSRHINYFLAVAEHGSFTRAASALHVSQPALSQQIRQLEESLGVPLFDRSGRTIRLTDAGEVWRQYASRALQELGAGKRAIHDVADLTRGSLRIAVTPTFTSYFIGPLMADFYARYPSITLQLQEMSQEKIEDMLCRDELDVGIAFAPVHSPELEAIPLLTESLALVVAQHHPLAVHEQVALSRLHDEKLVLLSAEFATREQIDHYCEKAGLHPQVVIEANSISAVLELIRRTSLSTLLPAAIATQHDGLKAISLAPPLLERTAVLLRRKNSWQTAAAKAFLHMALDKCAVVGGNESR | not soluble |
| MSLCDYLERSAKKFPEKVAVQGVRLGHIEAITYAELNTFSDRFSEFLRAQGVTRGEFIPFFMFKEIDSIKSIFSILKADCAYVPLDCKSPEGRLLSIIKSCKAKFIIVNERSESLAERVFSAIPTLKIINISEFVSDTAFVFSASLNISVDLAYVLFTSGSTGTPKGVMISHQAIIDYIGWCTETYNITAIDHVSNHAPLYFDNSTFDIYTSMAAGATLHLVPEEFNVMLPRLIDWIEDNRISIFFCVPSILTLMLQTGRLRTERFVELKHLICAGEVLPTTTAKKILGLFPHLQLTNMYGPTEITVDCTYHVIREADVTSSTSIPIGKPRRNMQLMVLTDDGAVTNERGAIGELMVRGSSVSYGYLDNYAKTQEAFVQNPAHSLYPDMVYKTGDRVTIGEEGLYYYCGRLDNQIKHLGYRIELGEIEANALLLDTVLEAVAVYRSSTSMFESAICMAVKTTVPTDVRTLRAALTSVLPPYMIPGHFVFLDSDFPRTPNGKYDRASILGLFVEGHHHHHH | not soluble |
| MSSSTSQDFVSRPVIKKVFAKLQKEGDGAVVRRGISRSEQKLLDPFLMLDEFSVSPPAGFPDHPHRGITHQDFKGHKGTIYAGDVQWMTAGRGIIHSEMPEEEVNKEPNYQELSHSDIPKAEQNGVEVKVIAGESMGIQSPVYTRTPTMFLDFTLQPGAQIHQNVPESWNAFAYILESGEGGGVFSSSNSSPIPAHSVVVFGPGNDGVSVWNKSSSKQLRFVLIAGEPIGEPVVQYGPFVMNTQAEIDMTIEDYHYGKNGFEMAKYWRSQ | not soluble |
| MSLLEWDLSALFHDKEALQNFTQDQIQQSLNFKKNYENKLYTLNANEFLQALKDYENLNQALGKIMTYAYLLFAKNTQNGSFYAQYEEECKKIEENLLFFELEFCELAPEKSREFTTFCKDYDFYLSNLLQNKRYNLSKNEERIMLYLSNTGANAFSRLFDESMSALKIPFEGKKLSEEEILSKMYDENRKIRKKAAKKFSKVLQKNSRLLSFIINMIKTERKNISLLRGYENAEISRHISNQISQKSVDSLIASAQKHFNLVSQFYKRKKQILGYDELKDYDRYAPIGKEASFDFKTSKNIVLEAFQAFSPQFYDIAKNAFDQGWIDVYPQENKQGGAFSHSATSDAHPFVLLNHTNKRRDLFTLAHELGHTIHQKLSYNVSYLNQNTPLTTAETASVFAEMLVFDFIKDKLKKEELLSLYANKIEDIFATFYRQINFTCFERRLHAQENELSTEEINKIWMEESQKMFQDSVKLTKNYASWWSYIPHFIHSPFYCYAYAYAQLLVLALYGLYKSKKCENFKELYIKMLSLGGSVSPKELVGMFGFDIEDENFWEIGIKEIQKLINEFMELQSEGHHHHHH | soluble |
| SNAHKGTLYVVATPLGNLDDMTFRAVNTLRNAGAIACEDTRRTSILLKHFGIEGKRLVSYHSFNEERAVRQVIELLEEGSDVALVTDAGTPAISDPGYTMASAAHAAGLPVVPVPGA | soluble |
| PDKEYHTLHWIIMGALSCATRTVQIMTPYFIPDRSLVSALVTTALRGVEVTLVLPEKNNLPFVHWATRAYLWELIQQGIRVFYQPPPFAHTKLFIVDGLWSMIGSANLDPRSLRLNFELNLEVYDRELAGTLSRHFAVTVARSRQVSLTEMDGR | not soluble |
| MFKKALFILSLCPSFALAQSYVVYDFTHNRVLESHASDSIQPIASVTKLMTANVFLENNKNPNCRIAITKEDTDRIKGTGTKLPKNIPISCNELLKAMLVHSDNYAAHALSRAAGISRRQFIKKMNEKAHQLGMYSTRFHDSSGLSSYNISSPMDLVKLAKYSLNKSDIKRLSNLSATYIQAGKQKLYIKNTNKLVRDEIFDAAVNKTGYIQESGYNLVFINKHRCKNATIGVISLNNTSSAYRSSFTKSKLEKFGCTALNGRTIRDVAGEAQYEDGYDEVGFNTLIQKLSK | not soluble |
| MNKILIAAASSGTGKTTVTLGIMHALKKRGLRVQPFKVGPDYIDTNYHQAITGVASINLDSFLIDDDAMLAALFEKHGQSADISVIEGVMGLFDGLGIDRDNSSTSFIAKCTKTPVILVVDGKAISTSAAAIVDGFNRFDPELTIAGVIINRVASENHFSLIKGAIERYTDVPVLGYLPKNAAVALPERHLGLVPKEEMTELETKWEVLGDLIAEHVDLDRLLAISKTGAKLTVHPPEIQVPDFSGMRVAYALDAAFHFYYQDNLDFIRSTGATLIPFSPLEEREVPDADFIYIGGGFPEVFAERLAKNKSMHESILAAHEQGKPIYAECGGLMYLGSSLEMEAESYEMVGVFDGVSKMTTRLRKFGYCIAEPLEDTLLGKKGTAIRGHEFHHSVFETTEPTRMKLTKKRDGETVKEWHGGYQKGNTFASYLHIHFYQNLAMITHMFGAIERLEHHHHHH | soluble |
| MTNFKDNDGDGTKLHVVMFPWLAFGHMVPYLELSKLIAQKGHKVSFISTPRNIDRLLPWLPENLSSVINFVKLSLPVGDNKLPEDGEATTDVPFELIPYLKIAYDGLKVPVTEFLESSKPDWVLQDFAGFWLPPISRRLGIKTGFFSAFNGATLGILKPPGFEEYRTSPADFMKPPKWVPFETSVAFKLFECRFIFKGFMAETTEGNVPDIHRVGGVIDGCDVIFVRSCYEYEAEWLGLTQELHRKPVIPVGVLPPKPDEKFEDTDTWLSVKKWLDSRKSKSIVYVAFGSEAKPSQTELNEIALGLELSGLPFFWVLKTRRGPWDTEPVELPEGFEERTADRGMVWRGWVEQLRTLSHDSIGLVLTHPGWGTIIEAIRFAKPMAMLVFVYDQGLNARVIEEKKIGYMIPRDETEGFFTKESVANSLRLVMVEEEGKVYRENVKEMKGVFGDMDRQDRYVDSFLEYLVTNR | soluble |
| MRVAVVGATGAVGREILKVLEARNFPLSELRLYASPRSAGVRLAFRGEEIPVEPLPEGPLPVDLVLASAGGGISRAKALVWAEGGALVVDNSSAWRYEPWVPLVVPEVNREKIFQHRGIIANPNCTTAILAMALWPLHRAFQAKRVIVATYQAASGAGAKAMEELLTETHRFLHGEAPKAEAFAHPLPFNVIPHIDAFQENGYTREEMKVVWETHKIFGDDTIRISATAVRVPTLRAHAEAVSVEFARPVTPEAAREVLKEAPGVEVVDEPEAKRYPMPLTASGKWDVEVGRIRKSLAFENGLDFFVVGDQLLKGAALNAVQIAEEWLKGA | soluble |
| RQFQILLQQINMTDDTFMTYFEHGEIKKLTIHKASKSWHFHFQFKSLLPFQIYDTLTTRLTQSFAHIAKVTSSIEVQDAEVSESIVQDYWSRCIEELQGISPPIISLLNQQKPKLKGNKLIVKTKTDTEAAALKNKYSSMIQA | not soluble |
